Results taken from the supplement of paper PMC9170038.

System: MS2 coat protein
Test: apparent KD of MS2 coat protein; designed switch direction (-1 OFF switch, 1 ON switch): 1; higher = weaker reporter binding
Outline: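 Three titration conditions were used: no input, 200 uM small-molecule ligand, and an oligonucleotide input. In each, SNAP-549-labelled MS2 coat protein was raised from 0.7 or 1.5 nM, doubling, to 3 µM over designed RNA switches transcribed on Illumina chips by stalled E. coli RNA polymerase. Curve fits of normalised cluster fluorescence gave values whose per-design median over clusters is the apparent KD.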

[1] = input ligand: microRNA oligo, concentration not stated
[2] = Eterna round: R95, input ligand: microRNA oligo, concentration not stated
[3] = Eterna round: R95, input ligand: FMN 200 uM
[4] = Eterna round: R95, input ligand: none

Sequence	apparent KD of MS2 coat protein (input ligand: FMN 200 uM) [nM]	apparent KD of MS2 coat protein [1] [nM]	apparent KD of MS2 coat protein (input ligand: none) [nM]	apparent KD of MS2 coat protein [2] [nM]	apparent KD of MS2 coat protein [3] [nM]	apparent KD of MS2 coat protein [4] [nM]
UUUAAACAUGAGGAUCACCCAUGUUUUUUUAUGGGAGGAUAUCUAAGUUAAUUAUAUUAAGGAGAAGGCCUAUUUU (Eterna round: R96, puzzle: Same State 1)	28.1	136	145	–	–	–
UGAACCGUCACAGGAUAUCAUGCGAAAAUUGCGUGAGAAGGGUGGAUGUUGUGCUCAAAGUUAUACAUGAGGAUCACCCAUGUU [SameState NG1 #45] (Eterna round: R96, puzzle: Same State NG 1)	133	188	285	–	–	–
AUAAAACAUGAGGAUCACCCAUGUCAACAAAGUCGAGGAUAUGGGCAAAUAAAAUAAGAACCAGAAGGCGAAUAAC [salish99_SS1_r3_003] (puzzle: Same State 1)	–	–	–	339	–	–
UGAAUAGUUACAGGAUAUGAGCCGAAAAUUGGGUCAGAAGGGUGGGUGUUUUGCGCUAUGUGCUACAUGAGGAUCACCCAUGUU [SameState NG1 #34] (Eterna round: R96, puzzle: Same State NG 1)	888	268	338	–	–	–
UAUUUAAUCGUAGGAUAUAGAAUGAAAUUUGUACUAGAAGGACGUUACAUGAGGAUCACCCAUGUGGUAAGUGGGACAUAGAUU [JR_SSNG1_Sub035] (Eterna round: R96, puzzle: Same State NG 1)	235	105	121	–	–	–
GUGGCUGCCACAGGAUAUACCGUGUAAUUCACGGUAGAAGGGUGAAGCACUCAAAAGAGUGCUAACAUGAGGAUCACCCAUGUG [Quzaon] (Eterna round: R96, puzzle: Same State NG 1)	1040	170	290	–	–	–
GUUACAUGAGGAUCACCCAUGUAUGUGUGGGAGUAAGUGUCUUAGGAUAUCUGUUAUUGAAUUUAAGAGAAGGAAGAUUGUUGU [JMF's solution 37] (Eterna round: R96, puzzle: Same State NG 3)	102	59.5	100	–	–	–
GGAGCCGGUACUGAGGAUAUUCAUAUUAAAACAUGAGGAUCACCCAUGUAGGCCAGAAGGCCUUGGGAGAAGGCAGGCCAGCUCG [Atgexeedri - 4] (Eterna round: R96, puzzle: Same State 2)	24.7	177	268	–	–	–
GGAAAGAGGUUAGGAUAUGCAUGUUUGGGACAUGAGGAUCACCCAUGUAAUAGAAGAAAUCUACAGUAGAAGGGACAAGGAAGG [AK SSNG2-V2-6.1] (Eterna round: R96, puzzle: Same State NG 2)	152	72.9	170	–	–	–
GCUAGAAUUAAUGCCUACAUGAGGAUCACCCAUGUAUGUAGGCAGGAUAUCGUUUGCUUUGCAAACGAGAAGGGCCUUACUAGC [JL SSNG3 1.10] (Eterna round: R96, puzzle: Same State NG 3)	18.9	50.8	77.3	–	–	–
GAGUGGCAGUUAGGAUAUAUAGUGAUAAUGACAAUAGAAGGAACAGACAUGAGGAUCACCCAUGUAGGACUAAUCCAGAGAGAG [Parity 36 - Jieux - Same State NG 1] (Eterna round: R96, puzzle: Same State NG 1)	32.1	22.5	30.2	–	–	–
UCCUCAGUUUCACAGGAUAUGCGCUGAGUCACAUGAGGAUCACCCAUGUAGACGGAAAAUGUCGGGCAGAAGGGUGAGGCAUAAA [Diretibe] (puzzle: Same State 2)	–	–	–	117	57.2	4570
UCUUGGUUUUUGCUCGUUUUUUGUGUUGAACAUGAGGAUCACCCAUGUAUUGUACGAUCCAAUUUGAUAAUGGUCCG [JMF 61] (puzzle: Sensor for hsa-mir-208a)	–	–	–	34.4	44.2	48.7
GCAGUACAUGAGGAUCACCCAUGUCUCUAAAGUCGAGGAUAUGGGCAGGUUAUAUCCGAACCAGAAGGCGAGCUGC [SS1 Teenbexe 12] (puzzle: Same State 1)	–	–	–	301	81.5	339
UUCUGACAUGAGGAUCACCCAUGUGAGACAUAUGGAGAAUCUCAGGAUAUCCUGAGGAUCACCCAGGAGAAGGGAGAUCCGACC (Eterna round: R96, puzzle: Same State NG 3)	32	43.7	45.7	–	–	–
AGCUAUUAAUCAGGAUAUGGUGACAUGAGGAUCACCCAUGUAUUGAUGAUUAAAUGUGGUCACUACCAGAAGGGAUUACUAACA [SameState NG2 #50] (Eterna round: R96, puzzle: Same State NG 2)	34.2	221	260	–	–	–

Sequence	apparent KD of MS2 coat protein (input ligand: FMN 200 uM) [nM]	apparent KD of MS2 coat protein [1] [nM]	apparent KD of MS2 coat protein (input ligand: none) [nM]	apparent KD of MS2 coat protein [2] [nM]	apparent KD of MS2 coat protein [3] [nM]	apparent KD of MS2 coat protein [4] [nM]
GCAACUCGUAGAGGAUAUGUCCAGCAAGUAUCACAUGAGGAUCACCCAUGUUCAGCUCUACACCUGCAGAAGGCUAUUAGUGCA [Eternabot solution 46] (Eterna round: R96, puzzle: Same State NG 2)	15.8	13.6	17.2	–	–	–
UUGAAGAAUUAAGGAUAUCGAGUCAAGAUGUUAAACAUGAGGAUCACCCAUGUGGGUUGCGGUAUCGAGAAGGUAAAUAAGAAG [Mat - Same State NG 2 - JL mod - D54] (Eterna round: R96, puzzle: Same State NG 2)	44.3	29.6	44.8	–	–	–
UUUAAACAUGAGGAUCACCCAUGUUUUUUUAUGGGAGGAUAUCUAAGUUAAUUAUAUUAAGGAGAAGGCCUAUUUU [× ×•×ª×• ×ž×“×™× ×” × ×—×ª-04] (puzzle: Same State 1)	–	–	–	124	–	–
GUGGUCAGACAUGAGGAUCACCCAUGUGGAAUAAAUAAGGAAAAGGAUAUCUAAUAUAGGAUAUAAGAGAAGGUUUGGUUGGUG (Eterna round: R96, puzzle: Same State NG 3)	74.1	52.1	64.7	–	–	–
UUGAAGAAUUAAGGAUAUUGAUUACAUAUGUAUAACAUGAGGAUCACCCAUGUGGGUUGCGGUAUCGAGAAGGUAAAUUACUAG [Mat - same State NG 2 - JL mod - D75] (Eterna round: R96, puzzle: Same State NG 2)	145	98.5	98.2	–	–	–
GUGGUGUAGAUACAGGAUAUGUUGCUCGUAACAUGAGGAUCACCCAUGUAUAUAUGAGAUUAAAUGCAGAAGGGUGCACACCACG [Mat - Same State 2 - Mod of UCT - D76] (puzzle: Same State 2)	–	–	–	18.9	24.6	13.3
GCUCGUGGUAUUGUCUACAUGAGGAUCACCCAUGUAGGUGCGGAGGAUAUUUACGUGUCUCAUGUAGAGAAGGCCGUCACGAGC [SameState NG3 #97] (Eterna round: R96, puzzle: Same State NG 3)	52.2	190	297	–	–	–
AUAAAACAUGAGGAUCACCCAUGUCAACAAAGUCGAGGAUAUGGGCAAAUAAAAUAAGAACCAGAAGGCGAAUAAC [salish99_SS1_r3_003] (Eterna round: R96, puzzle: Same State 1)	39.7	215	282	–	–	–
GAGAAUCUAUCUCAGGAUAUCAUGUCAAAGACAUGAGGAUCACCCAUGUACCAGGAAACUGGUUAUGAGAAGGGAGAUAGAUUCG [Mat - Same State 2 - Mod - D36] (puzzle: Same State 2)	–	–	–	111	86.1	40.1
AGUCCAGCCUGAGCUGGACAAAAGCAUGUACAUGAGGAUCACCCAUGUCAUGUACAAGCUUUUUGCUCGACUUAAAA [Mat - hsa-mir-208a - Mod of JL - D10] (puzzle: Sensor for hsa-mir-208a)	–	–	–	14.2	569	624
GGUCCAGCCUGAGCUGGACAAAAGCAUGUACAUGAGGAUCACCCAUGUCAUGUACAAGCUUUUUGCUCGUCUAAAGG [Mat - hsa-mir-208a - 92] (puzzle: Sensor for hsa-mir-208a)	–	–	–	23.8	726	586
UUAAUGAUGUAAGGAUAUACAUGAGGAUUUCUCGUAGAAGGUACAAGACAUGAGGAUCACCCAUGUGUCGCUCAAUAGAGCGUA [Mat - Same State NG 1 - JL mod - D19] (Eterna round: R96, puzzle: Same State NG 1)	268	138	292	–	–	–
AACAGUCGGCGAGGAUAUGGACGUACGGACUAACCCAUACGGCUCACAUGAGGAUCACCCAUGUUCUAGAAGGCGCCACUGAAA [Soisce] (Eterna round: R96, puzzle: Same State NG 2)	18.1	22.8	66.7	–	–	–
UUUAGUUGCGGGCAGGAUAUGUAUUAAAAUACAUGAGGAUCACCCAUGUGCGGGUAUAACACCCGAUAGAAGGGCCAAUCGCGAC [Laonerce - 11] (puzzle: Same State 2)	–	–	–	53.6	20.9	71.9
GGAGCCGGCACUGAGGAUAUUCAUAUUAAAACAUGAGGAUCACCCAUGUAGGCCAGAAGGCCUUGGGAGAAGGCAGGUCGACUCG [Diqureveri] (Eterna round: R96, puzzle: Same State 2)	24.5	159	209	–	–	–
